Tests used:
[1] = parameters: species or system mice (BALB/c nu/nu); conditions: mouse, in vivo
Protocol: (§3) A Gd-labeled conjugate of the conjugate containing a peptide linker produced in one of the above Examples was administered from the tail vein of the tumor-bearing mice so that the protein mass was 0.02 mg (100 μL) per animal. As the tumor-bearing mice used in the present Example, mice (BALB/c nu/nu) that were in a tumor-bearing state brought about by transplanting human breast cancer cell line MDA-MB-468 (ATCC(registered trademark); HTB-132) at 5.0×10^6 cells/mouse subcutaneously on the back before administration of the sample were used. 24 hours after administration of the sample, the mice were sacrificed, the kidneys and the tumor were removed, and the amounts of Gd in the kidneys and in the tumor were measured using ICP-MS. The present test was carried out in 3 cases in each group, and the mean value of the 3 cases was calculated. The amount of Gd contained per kidney after administration was shown as a percentage of the amount of Gd administered (% of dose/tissue), and the amount of Gd contained per g of tumor tissue was shown as a percentage of the total amount of Gd administered (% of dose/g).

[2] = parameters: species or system mice (BALB/c or BALB/c nu/nu); conditions: mouse, in vivo
Protocol: A Gd-labeled conjugate of the conjugate containing a peptide linker produced in one of the above Examples was administered from the tail vein of mice (BALB/c or BALB/c nu/nu) so that the protein mass was 0.02 mg (100 μL) per animal. After about 24 hours, the mice were sacrificed and the kidneys were removed, and the amount of Gd in the kidneys was measured using ICP-MS. The present test was carried out in 3 cases in each group, the mean value of the 3 cases was calculated, and the amount of Gd contained per kidney after administration was shown as a percentage (% of dose/tissue) of the total amount of Gd administered.
Based on the amount of Gd contained in the kidneys of the control conjugate, the proportion of decrease in the amount of Gd contained in the kidneys of each of the conjugates having a peptide linker was determined.

[3] = tested on: human breast cancer cell line MDA-MB-468; test: Amount of tumor accumulation of Gd-labeled Fab^5 conjugates, MDA-MB-468 tumor-bearing mice (Example 8); conditions: control conjugate Ex-No. 108, mean for 2 runs, 24 hours
Protocol: as §3

[4] = target: human cancer-specific MUC1 peptide; test: ELISA binding activity of anti-human MUC1 antibody Fab^5 fragment conjugates (Example 6-1); conditions: each conjugate run in duplicate; Table 52; read-out: EC50
Sequence of human cancer-specific MUC1 peptide (as listed by the source): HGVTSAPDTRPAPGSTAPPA
Protocol: (§1) Each anti-human MUC1 antibody Fab^5 fragment conjugate prepared by the method of Example 5 was subjected to ELISA to evaluate the binding activity thereof to human cancer-specific MUC1. In the present test, 20×PBS/Tween 20 Buffer (Thermo Fisher Scientific Inc., 28352) diluted 20-fold with distilled water was used as a wash liquid. In addition, for bovine serum albumin (BSA) used in the present test, 30% Bovine Serum Albumin solution (Sigma-Aldrich, Inc., A9576-50ML) was added in an appropriate proportion for use. A human cancer-specific MUC1 peptide (PTL 1) at 0.5 μmol/L was added to a Nunc MaxiSorp White 384 plate (Nunc, 460372) at 30 μL per well, and the plate was incubated overnight at 4° C. for immobilization. The MUC1 peptide was removed by reverse centrifugation, and then blocking was carried out by adding a PBS/Tween 20 buffer containing 5.0% BSA. Thereafter, the blocking solution was removed by reverse centrifugation, a solution of each anti-human MUC1 antibody Fab^5 fragment conjugate (Ex-No. 104, 108, or 112) described above at about 10000 ng/mL was diluted in 14 steps by 3-fold dilution using a PBS/Tween 20 buffer containing 1.0% BSA, and 30 μL was added per well and incubated at room temperature for 60 minutes. The plate was washed 3 times with a PBS/Tween 20 buffer, and Horseradish Peroxidase-labeled goat anti-human IgK antibody (Southern Biotechnology Associates, Inc.) diluted 10000-fold using a PBS/Tween 20 buffer containing 5.0% BSA was added at 30 μL per well and incubated at room temperature for 30 minutes. The plate was washed 3 times with a PBS/Tween 20 buffer, and ECL Prime Western Blotting DETECTION Reagent (GE Healthcare, RPN2232) as a substrate was added at 30 μL per well. The substrate was incubated at room temperature for 15 minutes, and then a signal value thereof was measured using an Envision counter (PerkinElmer, Inc.).
(§2) The test for each antibody was carried out in duplicate, and the EC50 value was calculated using a 4-parameter logistic curve model.

[5] = target: human cancer-specific MUC1 peptide (Homo sapiens, UniProt P15941); test: ELISA binding activity of anti-human MUC1 antibody Fab^5 fragment conjugates (Example 6-2); conditions: each conjugate run in duplicate; Table 54; read-out: EC50
Protocol: as §1, with “101-113)” for “104, 108, or 112)”
as §2

B1: Ex-No 108 (conjugate)
heavy: QVQLVQSGAEVKKPGASVKVSCKASGYTFTNYGLSWVRQAPGQGLEWMGENHPGSGIIYHNEKFRGRVTLTADRSTSTAYMELSSLRSEDTAVYYCARSSGTRGFDYWGQGTLVTVSSASTKGPSVFPLAPSSKSTSGGTAALGCLVKDYFPEPVTVSWNSGALTSGVHTFPAVLQSSGLYSLSSVVTVPSSSLGTQTYICNVNHKPSNTKVDKKVEPKSCD
light: DVVMTQTPLSLSVTPGQPASISCRSSQSIVHSNGNTYLEWYLQKPGQSPQLLIYRVSNRFSGVPDRFSGSGSGTDFTLKISRVEAEDVGVYYCFQGSHGPWTFGQGTKLEIKRTVAAPSVFIFPPSDEQLKSGTASVVCLLNNFYPREAKVQWKVDNALQSGNSQESVTEQDSKDSTYSLSSTLTLSKADYEKHKVYACEVTHQGLSSPVTKSFNRGEC
modifications: non-natural residues
Renal residual amount Mean [1]: 34.67 % of dose/tissue
Renal residual amount (normal mice) Mean [2]: 33.00 % of dose/tissue
Amount of tumor accumulation Mean [3]: 0.92 % of dose/g
EC50 [4]: 0.07 nM
EC50 [5]: 0.07 nM

From patent publication US20220096653A1, “CONJUGATE COMPRISING LIGAND AND CEACAM5 ANTIBODY FAB FRAGMENT” (ASTELLAS PHARMA INC., priority 2019, published 2022)
